According to patent US8591913B2, “Methods of decreasing adipose tissue” (Toru Miyazaki, priority 2009, dated 2013):
Entries after “also recorded” stand apart in the source; their conditions may differ.

Experiments:
3T3-L1 preadipocytes = assay: Differentiation of 3T3-L1 preadipocytes into mature adipocytes, oil-red-o staining; assay type: cell-based, mouse
Procedure: In order to examine how AIM produced by the macrophages infiltrating the adipose tissues works on surrounding adipocytes, an experiment in which AIM was loaded during a culture process of differentiating 3T3-L1 preadipocytes into the mature adipocytes was performed.
A recombinant mouse AIM protein and a recombinant human AIM protein were used as AIM. Those recombinant AIM proteins were prepared by culturing human-derived HEK293T cells transfected with a vector expressing mouse AIM or human AIM and isolating and purifying the protein from its culture supernatant. The same recombinant AIM proteins were also used as AIM in other examples shown below. AIM was loaded by adding AIM at a concentration of 5 μg/mL to the culture medium.
Differentiation induction (Induction) of the 3T3-L1 cells was initiated by first culturing the 3T3-L1 cells for 4 days (day −2 to day 2) to proliferate the cells (Cell proliferation) and subsequently culturing the cells in a culture medium containing insulin, dexamethasone (DEX), and isobutylmethylxanthine (IBMX) for 2 days (day 2 to day 4). The differentiation induction was further continued by culturing the cells in a culture medium containing insulin for 2 days (day 4 to day 6).
After the period of the differentiation induction (day 2 to day 6), the culture was continued in a culture medium not containing those differentiation-inducing factors. Then, the cells on the 10th day (day 12) after the initiation of the stimuli for differentiation induction were stained with oil-red-o, and the differentiation of the 3T3-L1 cells to mature adipocytes was observed.
In addition, using a FAS inhibitor (C75) in place of AIM, the FAS inhibitor at a concentration of 25 μM was loaded according to the schedules (d) and (f), and as was the case with the above-mentioned AIM, the cells were collected on the 2nd day (day 4: schedule (d)) and 10th day (day 12: schedule (f)) after the initiation of the differentiation induction, and the enzyme activity of FAS was measured.
FIG. 12A and FIG. 12B show the results of staining the cells with oil-red-o and analyzing the gene expression by RT-PCR on the 2nd day (day 4) after the initiation of the differentiation induction in the case of loading no AIM according to the schedule (a) (None), the case of loading AIM according to the schedule (d) (AIM (5 μg/mL)), and the case of loading the FAS inhibitor according to the schedule (d) (C75 (25 μM)), respectively.

[1] = test system: mature adipocytes (differentiated 3T3-L1 cells); assay: Induction of lipolysis in mature 3T3-L1 adipocytes (lipid droplets, glycerol and free fatty acid efflux); assay type: cell-based, mouse
Procedure: The effect of AIM on mature adipocytes was examined.
Then, the cells on the 10th day (day 12) after the initiation of the stimuli for differentiation induction were stained with oil-red-o. The number of cells having lipid droplets was counted. Further, the diameter of lipid droplets was measured in the cells having lipid droplets. For comparison, the number of the cells was counted and the diameter of lipid droplets was measured for the cells cultured in the above-mentioned schedules (a) and (d).
Further, the supernatant of the culture medium after the cells were cultured while loading AIM according to the schedule (e) was collected, and amounts of glycerol and free fatty acid (FFA) contained in the supernatant were measured by ELISA. For the comparison, the amounts of glycerol and free fatty acid in the culture supernatant obtained according to the schedule (a) were also measured.
In order to avoid adsorption of free fatty acid to albumin contained in the culture medium, the culture medium supplemented with 10% FBS (fetal bovine serum) was exchanged to a serum-free culture medium on the 10th day (day 12) after the initiation of the differentiation induction, further the cells were cultured in the serum-free culture medium for 6 hours, and subsequently the amounts of glycerol and free fatty acid contained in the supernatant of the serum-free culture medium were measured.
FIG. 7A and FIG. 7B illustrate the evaluation results of the number (per 10^4 μm^2) of cells having lipid droplets (Droplet (+) cells) and the relative diameter of lipid droplets (%) obtained according to the schedules (a), (d), and (e) (Exp. a, d, and e), respectively. The relative diameter of lipid droplets illustrated in FIG. 7B was calculated by defining the diameter of lipid droplets in the cells obtained according to the schedule (a) without AIM loading as 100%. FIG. 8A and FIG. 8B illustrate the concentration of glycerol (Glycerol Efflux, mM) and the concentration of free fatty acid (FFA Efflux, ×10 mM) in the culture medium obtained according to the schedules (a) and (e) (Exp. a and e), respectively.
In addition, FIG. 13A and FIG. 13B illustrate the results of measuring the glycerol concentration (glycerol efflux, mM) and the free fatty acid concentration (FFA efflux, ×10 mM) in the culture medium on the 10th day (day 12) after the initiation of the differentiation induction in the case of loading no AIM according to the schedule (a) (None), the case of loading AIM according to the schedule (f) (AIM), and the case of loading the FAS inhibitor according to the schedule (f) (C75), respectively.

CD36 = target: T1, CD36 (Mus musculus, UniProt Q08857); assay: Incorporation of intravenously injected rAIM into adipose tissue of CD36-/- and CD36+/+ mice; assay type: in vivo; settings: mouse rAIM 300 μg/mouse intravenous, 16 hours, epididymal adipose tissue
T1 construct: endogenous in cells; host or cells: differentiated 3T3-L1 adipocytes
T1 sequence (Q08857 whole entry): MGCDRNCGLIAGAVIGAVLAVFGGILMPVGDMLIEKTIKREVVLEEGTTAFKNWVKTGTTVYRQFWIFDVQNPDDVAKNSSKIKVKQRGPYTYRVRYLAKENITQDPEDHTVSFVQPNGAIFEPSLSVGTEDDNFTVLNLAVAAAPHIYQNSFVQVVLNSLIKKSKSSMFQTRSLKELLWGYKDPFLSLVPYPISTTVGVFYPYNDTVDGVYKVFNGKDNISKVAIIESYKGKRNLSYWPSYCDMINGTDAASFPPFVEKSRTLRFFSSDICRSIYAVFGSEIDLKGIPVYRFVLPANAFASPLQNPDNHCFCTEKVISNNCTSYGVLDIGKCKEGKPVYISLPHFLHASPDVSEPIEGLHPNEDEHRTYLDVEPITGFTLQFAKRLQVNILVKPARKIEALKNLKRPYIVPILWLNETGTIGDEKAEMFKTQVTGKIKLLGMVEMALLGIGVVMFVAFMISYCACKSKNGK
Procedure: Mouse rAIM was intravenously injected into each of a CD36^−/− mouse which was deficient for CD36 and a wild-type CD36^+/+ mouse, and the incorporation of rAIM into the adipose tissues was analyzed. That is, an injection prepared by dissolving rAIM in PBS was intravenously injected into each of the CD36^−/− mouse and the CD36^+/+ mouse (300 μg/mouse). At 16 hours after the injection, the mice were sacrificed, and tissue sections were made from their epididymal adipose tissue. Then, the tissue sections were stained with an anti-AIM antibody.

mouse CD36 = target: T2, mouse CD36 (Mus musculus, UniProt Q08857); assay: Binding of AIM to CD36-overexpressing HEK293 cells (confocal microscopy); settings: HEK293 cells overexpressing FLAG-tagged mouse CD36, cultured with mouse AIM for 3 hours
T2 construct: expressed in transfected cells; host or cells: HEK293 (called HEK293T)
T2 sequence (Q08857 whole entry): as above
Procedure: CD36 is a twice-transmembrane-type molecule, is expressed on adipocytes and macrophages, and is involved in intracellular internalization of many molecules including fatty acids, LDL, and the like. Thus, HEK293 cells in which mouse CD36 fused with a FLAG-tag at its C terminus was overexpressed were produced, and the cells were cultured with mouse AIM for 3 hours. Subsequently, the cells were collected, stained using an anti-AIM antibody and an anti-CD36 antibody, and observed under a confocal microscope.

[2] = Stability of AIM functions (drying and redissolution, acidic condition); assay type: physicochemical
AIM-/- macrophages = AIM-/- macrophages loaded with recombinant AIM molecules; Document 1; cited from earlier work
[3] = mouse AIM, schedule (e), compared with schedule (a)

| Molecule | differentiation of 3T3-L1 cells derived from mice / differentiation inhibitory function (3T3-L1 preadipocytes; mouse AIM and human AIM compared, in vitro) | lipolysis induction function in adipocytes derived from mice ([1]; mouse AIM and human AIM compared, same range of concentrations in vitro) | amount of rAIM internalized into the adipocytes, CD36-/- mouse compared with CD36+/+ mouse (CD36) | increase of the number of dead cells due to the loading of AIM (3T3-L1 preadipocytes; 3T3-L1 cells loaded with AIM) | differentiation of the 3T3-L1 cells to the mature adipocytes (3T3-L1 preadipocytes; AIM continuously loaded day -2 to day 12, data not shown) | differentiation of the 3T3-L1 cells (3T3-L1 preadipocytes; mouse or human rAIM 5 μg/mL, schedule (b): day 2 to day 12, stained day 12) | differentiation of the 3T3-L1 cell (3T3-L1 preadipocytes; mouse or human rAIM 5 μg/mL, schedule (d): early phase of differentiation induction only (day 2 to day 4), stained day 12) | differentiation of the 3T3-L1 cells to the mature adipocytes (3T3-L1 preadipocytes; schedule (c): AIM only before differentiation induction (day -2 to day 2)) | concentration of free fatty acid in the culture supernatant [1, 3] | concentration of glycerol in the culture supernatant [1, 3] | diameter of lipid droplets contained in adipocytes, relative to schedule (a) ([1]; mouse AIM, schedule (e): day 6 to day 12, schedule (a) without AIM defined as 100%) | number of the cells having lipid droplets ([1]; mouse AIM, schedule (e): day 6 to day 12 after differentiation, compared with schedule (a) without AIM) | binding of AIM to sites at which CD36 was expressed on the cells (mouse CD36) | functions of AIM after drying and redissolution ([2]; drying such as lyophilization, redissolution) | functions of AIM under an acidic condition ([2]; pH of about 2 to 3) | resistance to the apoptosis (AIM-/- macrophages) |
| --- | --- | --- | --- | --- | --- | --- | --- | --- | --- | --- | --- | --- | --- | --- | --- | --- |
| mouse AIM: protein consisting of the amino acid sequence shown in SEQ ID NO: 5; recombinant, purified from HEK293T culture supernatant (protein, mouse, recombinant, purified from HEK293T culture supernatant) MAPLFNLMLAILSIFVGSCFSESPTKVQLVGGAHRCEGRVEVEHNGQWGTVCDDGWDRRDVAVVCRELNCGAVIQTPRGASYQPPASEQRVLIQGVDCNGTEDTLAQCELNYYVFDCSHEEDAGAQCENPDSDLLFIPEDVRLVDGPGHCQGRVEVLHQSQWSTVCKAGWNLQVSKVVCRQLGCGRALLTYGSCNKNTQGKGPIWMGKMSCSGQEANLRSCLLSRLENNCTHGEDTWMECEDPFELKLVGGDTPCSGRLEVLHKGSWGSVCDDNWGEKEDQVVCKQLGCGKSLHPSPKTRKIYGPGAGRIWLDDVNCSGKEQSLEFCRHRLWGYHDCTHKEDVEVICTDFDV | inhibited; also recorded: similarly exerted | similarly exerted | remarkably smaller | – | – | – | – | – | – | – | – | – | – | – | – | – |
| AIM: apoptosis inhibitor of macrophage, secretory protein with three SRCR domains; recombinant mouse and human AIM in Example 2, mouse AIM in Examples 3-16 (protein) ESPTKVQLVGGAHRCEGRVEVEHNGQWGTVCDDGWDRRDVAVVCRELNCGAVIQTPRGASYQPPASEQRVLIQGVDCNGTEDTLAQCELNYYVFDCSHEEDAGAQCENPDSDLLFIPEDVRLVDGPGHCQGRVEVLHQSQWSTVCKAGWNLQVSKVVCRQLGCGRALLTYGSCNKNTQGKGPIWMGKMSCSGQEANLRSCLLSRLENNCTHGEDTWMECEDPFELKLVGGDTPCSGRLEVLHKGSWGSVCDDNWGEKEDQVVCKQLGCGKSLHPSPKTRKIYGPGAGRIWLDDVNCSGKEQSLEFCRHRLWGYHDCTHKEDVEVICTDFDV | – | – | – | not observed | completely inhibited | almost completely inhibited | almost completely inhibited | not inhibited | remarkably increased | remarkably increased | about 25% | remarkably decreased | had been bound to sites | not lost | does not lose its functions | enhanced |
